The term Kd denotes the constant that tells how readily two partners part at equilibrium. Broadly, the IC50 is the midpoint of a concentration-inhibition curve. Low readings indicate greater potency, high ones weaker potency.

This is an account of results in the Immune Epitope Database (IEDB).

For one assay, the target named is HLA-B*44:02. The experiment in a line: IEDB peptide-MHC binding, purified MHC/competitive/radioactivity; filed as Kd, often an IC50 or EC50 that approximates it; ≥ and ≤ were set here for values at or beyond the usual limits of such assays. The conditions noted are these: source organism: Dengue virus 2 Jamaica/1409/1983.
Another assay has as its target HLA-B*44:03. The assay is described as above. The conditions noted are these: source organism: Dengue virus 2 Jamaica/1409/1983.
A further assay addresses HLA-B*07:02. The experiment in a line: IEDB peptide-MHC binding, purified MHC/direct/fluorescence; filed as Kd, often an IC50 or EC50 that approximates it; ≥ and ≤ were set here for values at or beyond the usual limits of such assays.
Assay [1] deals with HLA-A*01:01. The description is as above.
For assay [2], the target named is HLA-A*02:01. Put plainly: IEDB peptide-MHC binding, purified MHC/competitive/fluorescence; ≥ and ≤ were set here for values at or beyond the usual limits of such assays.
The next assay deals with HLA-A*24:02. The experiment in a line: IEDB peptide-MHC binding, purified MHC/competitive/radioactivity; filed as Kd, often an IC50 or EC50 that approximates it; ≥ and ≤ were set here for values at or beyond the usual limits of such assays.
The target of assay [3] is HLA-A*01:01. The description is as above.
The next assay concerns the target HLA-A*26:01. The description is as above.
A further assay has as its target HLA-A*30:02. The assay is described as above.
The next assay has as its target HLA-B*51:01. The description is as above.
A further assay deals with HLA-B*27:05. Put plainly: IEDB peptide-MHC binding, purified MHC/direct/fluorescence; filed as Kd, often an IC50 or EC50 that approximates it; ≥ and ≤ were set here for values at or beyond the usual limits of such assays.
Another assay deals with HLA-A*11:01. The assay is described as above. The conditions noted are these: source organism: SARS-CoV1.
Another assay addresses HLA-B*58:01. The assay is described as above.
For assay [4], the target named is HLA-B*15:01. Put plainly: IEDB peptide-MHC binding, purified MHC/competitive/radioactivity; filed as Kd, often an IC50 or EC50 that approximates it; ≥ and ≤ were set here for values at or beyond the usual limits of such assays.
For another assay, the target named is HLA-B*46:01. Put plainly: IEDB peptide-MHC binding, purified MHC/direct/fluorescence; filed as Kd, often an IC50 or EC50 that approximates it; ≥ and ≤ were set here for values at or beyond the usual limits of such assays. The conditions noted are these: source organism: Yellow fever virus.
In a further assay the target is HLA-B*53:01. The experiment in a line: IEDB peptide-MHC binding, purified MHC/competitive/radioactivity; filed as Kd, often an IC50 or EC50 that approximates it; ≥ and ≤ were set here for values at or beyond the usual limits of such assays.
In the next assay the target is HLA-A*69:01. The experiment in a line: IEDB peptide-MHC binding, purified MHC/direct/fluorescence; filed as Kd, often an IC50 or EC50 that approximates it; ≥ and ≤ were set here for values at or beyond the usual limits of such assays.
The target of assay [5] is HLA-A*02:01. The assay is described as above.
The target of assay [6] is HLA-B*15:01. The assay is described as above.
Setting [7] is: source organism: Sudan ebolavirus.
The mark [8] stands for this setting: source organism: Dengue virus 1 Brazil/97-11/1997.
Setting [9] is: source organism: Mammarenavirus brazilense.
The mark [10] stands for this setting: source organism: Dengue virus 2 Jamaica/1409/1983.
The mark [11] stands for this setting: source organism: Dengue virus 3 Martinique/1243/1999.
The mark [12] stands for this setting: source organism: Vaccinia virus WR.
The mark [13] stands for this setting: source organism: Zaire ebolavirus.
Setting [14] is: source organism: Dengue virus 4 Dominica/814669/1981.
Where [15] appears, read: source organism: Mycobacterium tuberculosis.
[16] abbreviates: source organism: Human betaherpesvirus 6B.
Setting [17] is: source organism: Bacillus anthracis.
The mark [18] stands for this setting: source organism: Haemophilus influenzae.
Setting [19] is: source organism: Dengue virus 4 Philippines/H241/1956.
[20] abbreviates: source organism: Entamoeba histolytica.

As to AEMEEALRG, the Kd with HLA-B*44:02 was 4.65 nM; with HLA-B*44:03, 13.2 nM.

The sequence APRTLVLLL yielded a Kd in the assay with HLA-B*07:02 (source organism: Homo sapiens) of 145 nM.

In the assay with HLA-A*01:01 [1] (source organism: Vibrio cholerae), ASLLRRWPK showed a Kd of at least 20000 nM.

In the assay with HLA-A*02:01 [2] (setting [7]), ASTVIYRGV displayed an IC50 of 7440 nM. This lies in the single-digit micromolar range.

Take DFPGKTVWF: the Kd with HLA-A*24:02 (setting [8]) amounted to 8800 nM.

For the sequence DPKRYFVPIF, the results for the Kd with HLA-A*01:01 [3] (setting [9]) and in the assay with HLA-A*26:01 (setting [9]) were at least 70400 nM and at least 69700 nM, respectively.

Consider EKSAAIDGEY, for which the Kd with HLA-A*01:01 [3] (setting [8]) was 2420 nM; with HLA-A*30:02 (setting [8]) it was 49.3 nM; in the assay with HLA-A*26:01 (setting [8]), 2040 nM.

For ELCEDTITY, the Kd with HLA-A*26:01 (setting [10]) came to 754 nM.

Take EPPFGESNI: in the assay with HLA-B*51:01 (setting [11]), the Kd stood at 11200 nM.

In the case of ERSDKSYEH, the Kd amounted to 8450 nM in the assay with HLA-B*27:05 (source organism: SARS-CoV1), 16800 nM with HLA-A*11:01 and 1840 nM in the assay with HLA-B*58:01 (source organism: SARS-CoV1).

As to ETLLLLGLMI, the Kd with HLA-A*26:01 (setting [11]) is at least 54400 nM.

FDFCEGTTVV: in the assay with HLA-B*51:01 (setting [10]), the Kd was 2650 nM.

As for FILTAILFF, the Kd with HLA-B*15:01 [4] (setting [12]) was determined as 181 nM.

In the case of FMAILQHHQ, the IC50 with HLA-A*02:01 [2] (setting [13]) was 1080 nM. This counts as single-digit micromolar.

Take FTPEARNSTF: the Kd worked out at 518 nM in the assay with HLA-A*26:01 (setting [14]) and 4150 nM with HLA-A*24:02 (setting [14]).

In the assay with HLA-A*02:01 [2] (source organism: Variola virus), GGFSTLDKI gave a half-inhibitory concentration (IC50) of at least 124000 nM.

GMMGGLWKY gave a Kd in the assay with HLA-B*46:01 of at least 20000 nM.

In the assay with HLA-B*07:02 (setting [15]), GPRTRGYAI gave a Kd of 9 nM.

On to GRSCTEETF, for which the Kd in the assay with HLA-B*27:05 (source organism: Mammarenavirus juninense) is at least 20000 nM.

In the case of GTGPCAGDF, in the assay with HLA-A*02:01 [2] (setting [13]), the half-inhibitory concentration (IC50) was at least 512000 nM.

In the case of IANELNYILW, the Kd with HLA-B*53:01 (setting [11]) turned out to be 79.9 nM.

ICDDVLSKY: the dissociation constant (Kd) worked out at 3180 nM with HLA-A*01:01 [1] (setting [16]) and 2690 nM with HLA-A*69:01 (setting [16]).

Turning to ILNGGLGNA, the Kd is 317 nM with HLA-A*02:01 [5] (setting [17]) and at least 20000 nM with HLA-A*69:01 (setting [17]).

As to ILYDTGSSW, the Kd worked out at 10200 nM with HLA-A*02:01 [5] (setting [18]), 119 nM in the assay with HLA-B*15:01 [6] (setting [18]) and 92.8 nM with HLA-B*58:01 (setting [18]).

As for IMILKLLTDF, the Kd with HLA-B*15:01 [4] (source organism: Dengue virus 1 Singapore/S275/1990) worked out at 12.4 nM.

Turning to IPHDLMEFI, the Kd with HLA-B*53:01 (setting [19]) is 6.39 nM; in the assay with HLA-B*51:01 (setting [19]), 20.4 nM.

As to ISKIPGGNMY, the values for the Kd with HLA-B*15:01 [4] (setting [8]), with HLA-A*01:01 [3] (setting [8]) and with HLA-A*30:02 (setting [8]) were 137 nM, at least 27800 nM and 15.4 nM, respectively.

ISTIGIRPS yielded an IC50 in the assay with HLA-A*02:01 [2] (setting [7]) of at least 116000 nM.

In turn, IVFATAARY returned a Kd with HLA-B*15:01 [6] (setting [15]) of 161 nM.

In the case of IWLKLRDSY, the Kd with HLA-A*30:02 (setting [8]) amounted to 673 nM.

Sequence KIMASENSS came in with an IC50 in the assay with HLA-A*02:01 [2] (setting [13]) of at least 119000 nM.

For the sequence KQLESVMYL, the figures for the Kd in the assay with HLA-A*02:01 [5] (setting [20]) and with HLA-A*69:01 (setting [20]) were 4.8 nM and at least 20000 nM, respectively.

Take KQPATLRKY: the Kd in the assay with HLA-A*30:02 (setting [10]) is 416 nM.

Consider KQTGSASSM, for which, in the assay with HLA-B*15:01 [4] (setting [10]), the Kd worked out at 10.8 nM.

As for KSKKYEGPF, the Kd with HLA-B*15:01 [4] (setting [12]) came to 1.86 nM.

In the assay with HLA-A*02:01 [2] (source organism: Variola virus), KTSQVPKLL had an IC50 of 23500 nM.

KVVQPENLEY: in the assay with HLA-B*15:01 [4] (source organism: Dengue virus 2 16681-PDK53), the dissociation constant Kd turned out to be 30 nM.

Consider LAESVKMHM, for which, in the assay with HLA-B*15:01 [4] (setting [12]), the Kd is 963 nM.

As for LAKKTLAPF, the Kd with HLA-B*15:01 [4] (setting [12]) was found to be 2.13 nM.

As to LAMGCYSQV, in the assay with HLA-B*51:01 (setting [19]), the Kd was determined as 140 nM.

Regarding LANTNFFVF, in the assay with HLA-B*15:01 [4] (setting [12]), the Kd stood at 17 nM.

As to LHPASAWTLY, the Kd with HLA-A*30:02 (setting [8]) came to 53.7 nM.

Turning to LLSSTRVPNY, the Kd in the assay with HLA-A*01:01 [3] (setting [19]) was 2260 nM; with HLA-A*30:02 (setting [19]), 2170 nM.

On to LPETLETLL, for which the Kd with HLA-B*53:01 (setting [10]) is 918 nM.

In the case of LPVWLAHKV, the Kd was found to be 831 nM in the assay with HLA-B*53:01 (setting [11]) and 126 nM with HLA-B*51:01 (setting [11]).

On to LQKGGVIVY, for which the Kd with HLA-B*15:01 [6] (setting [18]) was determined as 478 nM.

For the sequence LSIPHDLMEF, the Kd is 5.99 nM with HLA-B*15:01 [4] (setting [19]) and at least 36200 nM with HLA-A*01:01 [3] (setting [19]).

The sequence LTPKAQREI returned an IC50 with HLA-A*02:01 [2] (source organism: Variola virus) of at least 71400 nM.
